Three molecules from paper PMC8748450, “Aminoacyl chain translocation catalysed by a type II thioesterase domain in an unusual non-ribosomal peptide synthetase” (Nature Communications, 2022) can be followed below.

One may read the Kd as the constant that tells how readily two partners part at equilibrium. Low values mean higher affinity, high ones lower affinity.

What all share (conditions): both partners purified
Experiment [1] has as its target T1, apo-LgnB-A1-T0 didomain (NRPS subunit LgnB) (RED-tris-NTA label (in the MST experiment only)).
T1 construct: LgnB, NRPS subunit with domains A1-T0, encoded by lgnB of the legonmycin (lgn) biosynthetic gene cluster, amplified from cosmid 7G1; about 65 kDa; apo form (no phosphopantetheine); Cloned into EcoRI/HindIII of pET-28a(+); MA37; source: E. coli BL21-CodonPlus (DE3)-RP, purified (Ni-NTA; gel filtration on Superdex 75 for ITC); not shown: His6, N-terminal, kept
Kind of experiment: MST; LgnB labelled with RED-tris-NTA, 25 nM, as target; LgnA as ligand, 10 to 0.000305 µM; HBS-ET (10 mM HEPES, 150 mM NaCl, 3 mM EDTA, 0.005% Tween-20, pH 8.0); 25 °C; Monolith NT.115.

For experiment [2], the target named is T2, apo-LgnD (NRPS subunit, C1-T1-C2-A2-T2-TE).
T2 construct: LgnD, NRPS subunit with domains C1-T1-C2-A2-T2-TE, encoded by lgnD of the legonmycin (lgn) biosynthetic gene cluster, amplified from cosmid 7G1; about 207 kDa; apo form (no phosphopantetheine); Cloned into NdeI/XhoI of pEHISTEVa; MA37; also called full-length LgnD; source: E. coli BL21-CodonPlus (DE3)-RP, purified (Ni-NTA; gel filtration on Superdex 75 for ITC)
Kind of experiment: ITC; LgnA (125 µM) titrated into LgnD or truncated LgnD (25 µM), also into LgnB (concentrations for LgnB not told); thirteen 3 µL injections, 25 °C; one set binding model; MicroCal PEAQ-ITC.

Experiment [3] addresses T3, apo-LgnD-C1-T1 didomain (truncated LgnD).
T3 chain: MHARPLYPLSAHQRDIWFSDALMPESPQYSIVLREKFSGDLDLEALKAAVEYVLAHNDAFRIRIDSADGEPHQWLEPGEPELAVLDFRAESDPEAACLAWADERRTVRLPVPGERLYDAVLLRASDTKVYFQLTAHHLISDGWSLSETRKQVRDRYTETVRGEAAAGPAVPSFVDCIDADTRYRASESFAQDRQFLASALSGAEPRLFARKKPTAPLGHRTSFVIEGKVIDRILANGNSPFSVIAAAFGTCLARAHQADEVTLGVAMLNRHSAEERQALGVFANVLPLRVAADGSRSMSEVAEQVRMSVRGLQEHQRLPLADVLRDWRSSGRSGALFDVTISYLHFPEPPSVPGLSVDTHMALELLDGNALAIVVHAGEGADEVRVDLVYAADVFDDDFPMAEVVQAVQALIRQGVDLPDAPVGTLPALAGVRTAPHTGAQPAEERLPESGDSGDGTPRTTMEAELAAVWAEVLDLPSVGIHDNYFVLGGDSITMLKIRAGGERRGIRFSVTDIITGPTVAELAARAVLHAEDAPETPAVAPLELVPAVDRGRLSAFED
The description is as above.

The target of experiment [4] is T4, LgnD-T1 domain (truncated LgnD).
T4 chain: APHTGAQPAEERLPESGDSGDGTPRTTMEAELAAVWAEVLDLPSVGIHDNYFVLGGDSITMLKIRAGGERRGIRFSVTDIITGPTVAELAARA
The experiment is described as above.

T1 sequence (main, as listed by the source): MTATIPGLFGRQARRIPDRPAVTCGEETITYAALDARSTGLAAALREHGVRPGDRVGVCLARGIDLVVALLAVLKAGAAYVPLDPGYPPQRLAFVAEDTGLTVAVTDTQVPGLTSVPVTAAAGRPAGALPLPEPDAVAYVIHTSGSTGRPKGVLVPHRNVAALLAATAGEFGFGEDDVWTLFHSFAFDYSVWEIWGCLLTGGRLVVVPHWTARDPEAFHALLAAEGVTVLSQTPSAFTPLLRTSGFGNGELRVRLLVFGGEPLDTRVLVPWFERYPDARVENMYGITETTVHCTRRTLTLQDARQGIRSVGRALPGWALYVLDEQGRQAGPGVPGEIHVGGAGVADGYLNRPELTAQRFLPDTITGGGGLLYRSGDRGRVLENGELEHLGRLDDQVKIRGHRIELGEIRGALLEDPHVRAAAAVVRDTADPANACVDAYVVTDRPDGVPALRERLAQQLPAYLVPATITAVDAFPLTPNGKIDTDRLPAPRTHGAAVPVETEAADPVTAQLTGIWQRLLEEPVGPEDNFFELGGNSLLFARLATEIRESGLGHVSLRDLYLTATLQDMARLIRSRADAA

B1: LgnA, type II thioesterase (TEII) orthologue (enzyme)
chain: MPVTLLCIPYAGAGASLFRRWKRHPFQHMDVAAVQLPGREELFADGPCTSMSELVDLCAGHIRELPQDAPFALFGHSFGALVAYETAQRLAAEGLRLPERLIVSGAAAPWLPRPVTDADSLSDDQFVARVRDVVGYDHPALHDAELRGLLLPSLRADLSISDRYAPGSTDPLPVPLTVLRGSDDRLVSRQDVELWAKAASQPTELIELPGDHMYFSLDPKPLLAELDAVFARSAA
With B1, the equilibrium dissociation constant (Kd) amounted to 1700 ± 813 nM in experiment [1] and 2550 ± 96 nM in experiment [2].

B2: LgnA, type II thioesterase (TEII) orthologue (enzyme)
chain: B1 chain
modifications: apo form (no phosphopantetheine on Ser492)
Turning to B2, the dissociation constant Kd in experiment [3] was 1010 ± 227 nM.

B3: LgnA, type II thioesterase (TEII) orthologue (enzyme)
chain: B1 chain
modifications: apo form (no phosphopantetheine on Ser492 of LgnD); limits from primers 28a-LgnD_T1-F/R
In experiment [4], B3 returned a Kd of 7210 ± 1610 nM.
